± gives the standard error. This sample holds only a part of the variants without activity.
B1: glmS ribozyme (parent)
chain: AUAAAAGCGCCAGAACUACAGAAAUGUAGUUGACGAGGAGGAGGUUUAUCGAAUUUUCGGCGGAUGCCUCCAAA

What was measured:
Conditions in all cases: with glucosamine-6-phosphate
glucosamine-6-phosphate [1] = variants of: B1; assay: self-cleavage kobs at 40 uM GlcN6P; higher = faster cleavage; RNA array
How it was run: (§1)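 kobs was derived by fitting per-tile medians to one- or two-exponential decays after normalising signals to baseline and to non-cleaving reference variants. Those signals came from barcoded ribozyme variants transcribed in situ by E. coli RNA polymerase on sequenced MiSeq chips, followed through a hybridised Cy3 probe at 37 °C and imaged over ~14 h. Glucosamine-6-phosphate (40 μM to 10 mM) in HEPES/KCl/Mg(OAc)2 buffer was flowed in. Weighted Michaelis–Menten fits across concentrations then gave kcat and KM.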

glucosamine-6-phosphate [2] = variants of: B1; assay: self-cleavage kobs at 160 uM GlcN6P; higher = faster cleavage; RNA array
How it was run: as §1

glucosamine-6-phosphate [3] = variants of: B1; assay: self-cleavage kobs at 640 uM GlcN6P; higher = faster cleavage; RNA array
How it was run: as §1

glucosamine-6-phosphate [4] = variants of: B1; assay: self-cleavage kobs at 2500 uM GlcN6P; higher = faster cleavage; RNA array
How it was run: as §1

glucosamine-6-phosphate [5] = variants of: B1; assay: self-cleavage kobs at 10000 uM GlcN6P; higher = faster cleavage; RNA array
How it was run: as §1

Variant	self-cleavage kobs at 40 uM GlcN6P (glucosamine-6-phosphate [1])	self-cleavage kobs at 160 uM GlcN6P (glucosamine-6-phosphate [2])	self-cleavage kobs at 640 uM GlcN6P (glucosamine-6-phosphate [3])	self-cleavage kobs at 2500 uM GlcN6P (glucosamine-6-phosphate [4])	self-cleavage kobs at 10000 uM GlcN6P (glucosamine-6-phosphate [5])
AUAAAAGCGCCAGAACUACAGAAAUGUAGUUGACGAGGAGGAGGUCUAUCGAAUUUUCGCCGGAUGCCUCCAAA [U46C G60C]	< 1e-05 s⁻¹	< 1e-05 s⁻¹	< 1e-05 s⁻¹	< 1e-05 s⁻¹	< 1e-05 s⁻¹
AUAAAAGCGCCAGAACUACAGAAAUGUAGUUGACGAGGAGGAGGUUCAUCGAAUUUGCGGCGGAUGCCUCCAAA [U47C U57G]	< 1e-05 s⁻¹	–	–	–	–
AUAAAAGCGCCAGAACUACAGAAAUGUAGUUGACGAGGAGGAGGUUCAUCGAAUUUUCGGUGUAUGCCUCCAAA [U47C C61U G63U]	< 1e-05 s⁻¹	–	–	–	–
AUAAAAGCGCCAGAACUACAGAAAUGUAGUUGACGAGGAGGAGGUUAAUUGAAUUUUCGGCGGAUGCCUCCAAA [U47A C50U]	< 1e-05 s⁻¹	–	–	–	5.52e-05 ± 1.2e-05 s⁻¹
AUAAAAGCGCCAGAACUACAGAAAUGUAGUUGACGAGGAGGAGGUUAAUCGAAUUUUCGGCGGAUGCAUCCAAA [U47A C68A]	< 1e-05 s⁻¹	–	–	–	–
AUAAAAGCGCCAGAACUACAGAAAUGUAGUUGACGAGGAGGAGGUUGAUCGAAUUUUCGGCGGAUGCCUGGAAA [U47G C70G C71G]	8.97e-05 ± 2.5e-05 s⁻¹	–	–	–	–
AUAAAAGCGCCAGAACUACAGAAAUGUAGUUGACGAGGAGGAGGUUCAUCGAAUUUUCGGCAGAUGCCUCCAAA [U47C G62A]	< 1e-05 s⁻¹	–	–	–	< 1e-05 s⁻¹
AUAAAAGCGCCAGAACUACAGAAAUGUAGUUGACGAGGAGGAGGUUGAUCGAAUUUUCGGCGUAUGCCUCCAAA [U47G G63U]	< 1e-05 s⁻¹	< 1e-05 s⁻¹	< 1e-05 s⁻¹	< 1e-05 s⁻¹	< 1e-05 s⁻¹
AUAAAAGCGCCAGAACUACAGAAAUGUAGUUGACGAGGAGGAGGUGUAUCGAUUUUUCGGCGGAUGCCUGCAAA [U46G A53U C70G]	5.33e-05 ± 2.4e-05 s⁻¹	–	–	0.000254 ± 7.7e-05 s⁻¹	0.000165 ± 4e-05 s⁻¹
AUAAAAGCGCCAGAACUACAGAAAUGUAGUUGACGAGGAGGAGGUGUAUGGAAUUUUCGGCGGAUGCCUCCAAA [U46G C50G]	4.21e-05 ± 9.2e-06 s⁻¹	7.37e-05 ± 1.5e-05 s⁻¹	4.09e-05 ± 1.3e-05 s⁻¹	–	2.21e-05 ± 7.3e-06 s⁻¹
AUAAAAGCGCCAGAACUACAGAAAUGUAGUUGACGAGGAGGAGGUGUAUCCAAUUUUCGGCGGAUGCCUCCAAA [U46G G51C]	< 1e-05 s⁻¹	–	< 1e-05 s⁻¹	–	< 1e-05 s⁻¹
AUAAAAGCGCCAGAACUACAGAAAUGUAGUUGACGAGGAGGAGGUCCAUCGAAUUUUGGGCGGAUGCCUCCAAA [U46C U47C C58G]	< 1e-05 s⁻¹	–	< 1e-05 s⁻¹	–	–
AUAAAAGCGCCAGAACUACAGAAAUGUAGUUGACGAGGAGGAGGUUCAUCGAAUUUUUGGCGGAUGCCUCUAAA [U47C C58U C71U]	< 1e-05 s⁻¹	–	–	–	3.48e-05 ± 1.1e-05 s⁻¹
AUAAAAGCGCCAGAACUACAGAAAUGUAGUUGACGAGGAGGAGGUUAAUCGAAUAUUCGGCGGAUGCCUCCAAA [U47A U55A]	0.000618 ± 0.00013 s⁻¹	0.00147 ± 0.00021 s⁻¹	0.00544 ± 0.0015 s⁻¹	0.00615 ± 0.0017 s⁻¹	0.0432 ± 0.015 s⁻¹
AUAAAAGCGCCAGAACUACAGAAAUGUAGUUGACGAGGAGGAGGUCUAUCGAAUUUUCUGCGGAUGCCUCCAAA [U46C G59U]	< 1e-05 s⁻¹	< 1e-05 s⁻¹	–	–	–
AUAAAAGCGCCAGAACUACAGAAAUGUAGUUGACGAGGAGGAGGUCUAUCGAAUUUUCAGCGGAUGCCUCCAAA [U46C G59A]	< 1e-05 s⁻¹	–	< 1e-05 s⁻¹	–	4.71e-05 ± 1.4e-05 s⁻¹
AUAAAAGCGCCAGAACUACAGAAAUGUAGUUGACGAGGAGGAGGUGUAUCGAAUUUUCGGUGGAUGCCUCCAAA [U46G C61U]	< 1e-05 s⁻¹	< 1e-05 s⁻¹	< 1e-05 s⁻¹	–	–
AUAAAAGCGCCAGAACUACAGAAAUGUAGUUGACGAGGAGGAGGUCUAUCGAAUUUACGGCGGAUGCCUCCAAA [U46C U57A]	< 1e-05 s⁻¹	–	–	–	5.47e-05 ± 1.8e-05 s⁻¹
AUAAAAGCGCCAGAACUACAGAAAUGUAGUUGACGAGGAGGAGGUUAAUCGAAUUUUCGGCGGAUGCCUCUAAA [U47A C71U]	0.000701 ± 8.3e-05 s⁻¹	0.0018 ± 0.0003 s⁻¹	0.00323 ± 0.00057 s⁻¹	0.00535 ± 0.001 s⁻¹	0.0342 ± 0.0081 s⁻¹
AUAAAAGCGCCAGAACUACAGAAAUGUAGUUGACGAGGAGGAGGUUGAUCGAAUUUUCGGCGGAUGACUCCAAA [U47G C67A]	0.000123 ± 1.8e-05 s⁻¹	0.000171 ± 3.2e-05 s⁻¹	0.000788 ± 0.00013 s⁻¹	0.000691 ± 0.00014 s⁻¹	0.00198 ± 0.00048 s⁻¹
AUAAAAGCGCCAGAACUACAGAAAUGUAGUUGACGAGGAGGAGGUGUAUCGAAUUUUCGCCGGAUGCCUCCAAA [U46G G60C]	< 1e-05 s⁻¹	< 1e-05 s⁻¹	< 1e-05 s⁻¹	< 1e-05 s⁻¹	< 1e-05 s⁻¹
AUAAAAGCGCCAGAACUACAGAAAUGUAGUUGACGAGGAGGAGGUGUAUCGAAUUUUCGACGGAUGCCUCCAAA [U46G G60A]	< 1e-05 s⁻¹	< 1e-05 s⁻¹	< 1e-05 s⁻¹	–	–
AUAAAAGCGCCAGAACUACAGAAAUGUAGUUGACGAGGAGGAGGUGUAUCGAACUUUCGGCGGAUGCCUCUAAA [U46G U54C C71U]	8.18e-05 ± 1.8e-05 s⁻¹	–	–	0.00226 ± 0.00098 s⁻¹	0.00463 ± 0.0014 s⁻¹
AUAAAAGCGCCAGAACUACAGAAAUGUAGUUGACGAGGAGGAGGUUGAUCGAAUUUUCGGCGGAUGCUUCCAAA [U47G C68U]	4.04e-05 ± 8.8e-06 s⁻¹	–	0.000601 ± 0.00012 s⁻¹	0.0005 ± 0.00011 s⁻¹	0.0017 ± 0.00029 s⁻¹
AUAAAAGCGCCAGAACUACAGAAAUGUAGUUGACGAGGAGGAGGUUCAACGAAGUUUCGGCGGAUGCAUCCAAA [U47C U49A U54G C68A]	< 1e-05 s⁻¹	–	–	–	< 1e-05 s⁻¹
AUAAAAGCGCCAGAACUACAGAAAUGUAGUUGACGAGGAGGAGGUUCCUCGAAUUUUCGGCGGAUGCCUCCAAA [U47C A48C]	< 1e-05 s⁻¹	< 1e-05 s⁻¹	–	–	–
